{"source": "patent US6913917B2", "about": "“Anti-cocaine catalytic antibody” (priority 1996, dated 2005)", "origin": "cited, not measured here", "molecules": {"B1": {"name": "butyrylcholinesterase: the enzyme butyrylcholinesterase; plasma enzyme that deactivates cocaine (protein, UniProt P06276 29-602, looked up)", "Cholinesterase": "EDDIIIATKNGKVRGMNLTVFGGTVTAFLGIPYAQPPLGRLRFKKPQSLTKWSDIWNATKYANSCCQNIDQSFPGFHGSEMWNPNTDLSEDCLYLNVWIPAPKPKNATVLIWIYGGGFQTGTSSLHVYDGKFLARVERVIVVSMNYRVGALGFLALPGNPEAPGNMGLFDQQLALQWVQKNIAAFGGNPKSVTLFGESAGAASVSLHLLSPGSHSLFTRAILQSGSFNAPWAVTSLYEARNRTLNLAKLTGCSRENETEIIKCLRNKDPQEILLNEAFVVPYGTPLSVNFGPTVDGDFLTDMPDILLELGQFKKTQILVGVNKDEGTAFLVYGAPGFSKDNNSIITRKEFQEGLKIFFPGVSEFGKESILFHYTDWVDDQRPENYREALGDVVGDYNFICPALEFTKKFSEWGNNAFFYYFEHRSSKLPWPEWMGVMHGYEIEFVFGLPLERRDNYTKAEEILSRSIVKRWANFAKYGNPNETQNNSTSWPVFKSTEQKYLTLNTESTRIMTKLRAQQCRFWTSFFPKVLEMTGNIDEAEWEWKAGFHRWNNYMMDWKNQFNDYTSKKESCVGL"}}, "test_system": "toxicity due to intraperitoneal cocaine", "settings": "intraperitoneal administration, mouse; cited from earlier work", "data": [{"molecule": "B1", "values": [{"measurement": "effect on toxicity due to intraperitoneal cocaine", "value": "inhibit toxicity"}]}]}
